Assay results reported in article PMC8221199.
pKd: −log10 of the molar value. Like-named read-outs stand apart in the source and are kept apart here.

Experiments:
[1] = target: p53 N-terminal peptide (Homo sapiens) (UniProt P04637); conditions: cited from earlier work
[2] = target: p53 N-terminal peptide (Homo sapiens) (UniProt P04637); conditions: cited from earlier work; remark: listed apart in the source
acetyltransferase p300 = acetyltransferase p300 (UniProt Q09472)
[3] = target: p53 N-terminal peptide (Homo sapiens) (UniProt P04637); conditions: cited from earlier work; remark: listed apart in the source
[4] = target: p53 N-terminal peptide (Homo sapiens) (UniProt P04637); conditions: cited from earlier work; remark: listed apart in the source

Sequence of p300 Taz1 (Q09472 323-423): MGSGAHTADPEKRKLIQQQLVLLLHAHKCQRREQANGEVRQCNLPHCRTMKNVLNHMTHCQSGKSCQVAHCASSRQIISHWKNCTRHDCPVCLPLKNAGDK
Sequence of p300 IBiD (Q09472 2050-2094): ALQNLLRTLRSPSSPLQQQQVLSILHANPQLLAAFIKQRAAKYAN
Sequence of acetyltransferase p300 (Q09472 whole entry): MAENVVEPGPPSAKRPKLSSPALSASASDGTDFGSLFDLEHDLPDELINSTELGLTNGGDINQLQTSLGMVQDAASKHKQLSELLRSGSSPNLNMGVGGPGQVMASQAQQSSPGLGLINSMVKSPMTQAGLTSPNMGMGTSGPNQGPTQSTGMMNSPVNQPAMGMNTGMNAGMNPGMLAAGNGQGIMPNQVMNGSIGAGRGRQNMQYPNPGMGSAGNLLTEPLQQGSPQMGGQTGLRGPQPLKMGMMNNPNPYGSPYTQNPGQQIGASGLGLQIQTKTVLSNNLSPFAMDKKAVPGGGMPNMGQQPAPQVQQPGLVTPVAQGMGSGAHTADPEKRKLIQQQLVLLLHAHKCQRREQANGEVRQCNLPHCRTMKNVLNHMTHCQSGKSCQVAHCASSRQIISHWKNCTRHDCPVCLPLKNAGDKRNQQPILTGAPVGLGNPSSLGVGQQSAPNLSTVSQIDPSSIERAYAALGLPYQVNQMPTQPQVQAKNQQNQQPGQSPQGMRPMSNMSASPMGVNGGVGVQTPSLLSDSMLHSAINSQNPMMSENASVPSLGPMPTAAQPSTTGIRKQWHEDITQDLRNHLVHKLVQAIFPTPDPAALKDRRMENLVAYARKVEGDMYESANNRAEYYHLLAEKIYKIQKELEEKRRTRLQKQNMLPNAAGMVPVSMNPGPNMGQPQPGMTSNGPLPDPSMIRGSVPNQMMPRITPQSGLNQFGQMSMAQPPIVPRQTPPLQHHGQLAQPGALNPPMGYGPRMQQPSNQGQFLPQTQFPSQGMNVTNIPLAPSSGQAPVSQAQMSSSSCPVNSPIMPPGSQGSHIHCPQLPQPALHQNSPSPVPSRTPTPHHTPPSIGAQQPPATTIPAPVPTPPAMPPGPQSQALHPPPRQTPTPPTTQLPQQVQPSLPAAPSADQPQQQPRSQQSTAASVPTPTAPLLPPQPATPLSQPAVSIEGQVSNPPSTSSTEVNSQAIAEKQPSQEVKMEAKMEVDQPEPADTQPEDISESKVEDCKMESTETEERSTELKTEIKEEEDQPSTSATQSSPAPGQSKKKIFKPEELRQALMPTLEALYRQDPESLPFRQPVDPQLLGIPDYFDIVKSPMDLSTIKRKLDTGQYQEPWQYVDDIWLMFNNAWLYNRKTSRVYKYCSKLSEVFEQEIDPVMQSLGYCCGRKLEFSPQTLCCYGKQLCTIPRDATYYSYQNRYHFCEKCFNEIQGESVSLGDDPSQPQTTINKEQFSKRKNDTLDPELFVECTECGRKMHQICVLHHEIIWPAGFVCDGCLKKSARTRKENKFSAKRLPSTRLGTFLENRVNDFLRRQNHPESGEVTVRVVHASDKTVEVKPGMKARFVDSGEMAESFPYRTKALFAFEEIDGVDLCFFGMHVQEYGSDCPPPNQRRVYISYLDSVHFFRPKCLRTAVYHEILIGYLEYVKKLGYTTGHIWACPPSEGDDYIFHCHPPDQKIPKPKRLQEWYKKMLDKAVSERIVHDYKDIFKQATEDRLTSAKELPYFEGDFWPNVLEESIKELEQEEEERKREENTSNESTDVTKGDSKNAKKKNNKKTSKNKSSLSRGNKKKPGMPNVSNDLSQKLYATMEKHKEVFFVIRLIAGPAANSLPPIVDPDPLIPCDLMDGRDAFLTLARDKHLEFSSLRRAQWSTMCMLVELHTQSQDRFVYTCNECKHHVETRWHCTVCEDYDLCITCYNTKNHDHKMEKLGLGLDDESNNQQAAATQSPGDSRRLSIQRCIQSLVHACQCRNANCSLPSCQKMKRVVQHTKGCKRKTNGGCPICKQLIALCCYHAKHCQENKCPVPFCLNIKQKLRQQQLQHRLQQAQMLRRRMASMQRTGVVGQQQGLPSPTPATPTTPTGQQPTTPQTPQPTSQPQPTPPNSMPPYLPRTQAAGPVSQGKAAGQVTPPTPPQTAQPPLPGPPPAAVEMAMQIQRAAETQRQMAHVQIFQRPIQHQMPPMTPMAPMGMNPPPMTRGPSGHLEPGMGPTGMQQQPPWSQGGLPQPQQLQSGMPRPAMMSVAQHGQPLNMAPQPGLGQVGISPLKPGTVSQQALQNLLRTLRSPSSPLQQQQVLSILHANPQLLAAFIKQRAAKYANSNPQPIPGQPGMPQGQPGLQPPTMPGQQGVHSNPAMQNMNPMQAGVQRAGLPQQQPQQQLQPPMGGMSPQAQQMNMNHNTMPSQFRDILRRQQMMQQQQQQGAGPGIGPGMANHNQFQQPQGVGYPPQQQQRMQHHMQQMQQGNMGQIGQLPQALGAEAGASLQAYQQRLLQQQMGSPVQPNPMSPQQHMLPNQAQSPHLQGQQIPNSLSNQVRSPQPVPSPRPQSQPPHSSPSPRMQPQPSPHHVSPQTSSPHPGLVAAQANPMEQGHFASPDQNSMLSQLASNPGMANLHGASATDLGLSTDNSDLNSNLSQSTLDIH
Sequence of p300 Taz2 (Q09472 1723-1812): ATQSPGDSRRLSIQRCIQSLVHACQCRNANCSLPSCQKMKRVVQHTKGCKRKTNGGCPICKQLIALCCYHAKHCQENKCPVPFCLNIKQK
Sequence of p300 Kix (Q09472 563-648): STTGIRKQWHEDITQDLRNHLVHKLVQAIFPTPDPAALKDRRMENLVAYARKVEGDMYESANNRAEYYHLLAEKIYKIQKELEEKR

In the case of p300 IBiD (from UniProt Q09472), the pKd [1] is listed as 5.10.

For p300 Taz2 (from UniProt Q09472), the pKd [2] is listed as 7.70.

Substance “semi-synthetic full-length p53 with phosphoserine at positions 15 and 20 (from UniProt P04637 1-393) (natural protein)” has a p300-dependent acetylation of p53 (western blot, Lys373ac), relative rate (acetyltransferase p300) of 2.3 fold.

For p300 Kix (from UniProt Q09472), the pKd [3] is listed as 5.52.

For p300 Taz1 (from UniProt Q09472), the pKd [4] is listed as 6.00.
